Biological target: Biotinylated MR1-β2m-5-OP-RU (UniProt Q95460)
Experiment: SPR

Kd: 1920 nM
Substance: A-F7 (TRAV1-2/TRBV6-1) adult MAIT TCR, soluble
